PMC4570336
pKd: −log10 of the molar value. Where two headings read alike, the source gives them in different places.

Experiments:
[1] = tested on: Inactivated H5N1 avian influenza virus (whole virion) (Avian influenza virus H5N1 (Scotland/59))
[2] = tested on: Inactivated H1N1 influenza virus (whole virion) (Avian influenza virus H1N1 (strain not stated)); conditions: 5'-biotin; scale: ohm
[3] = tested on: Inactivated H7N2 avian influenza virus (whole virion) (Avian influenza virus H7N2 (strain not stated)); conditions: 5'-biotin; scale: ohm
[4] = tested on: Inactivated H2N2 influenza virus (whole virion) (Avian influenza virus H2N2 (strain not stated)); conditions: 5'-biotin; scale: ohm
[5] = tested on: Inactivated H5N1 avian influenza virus (whole virion) (Avian influenza virus H5N1 (Scotland/59)); assay: SPR; conditions: 5'-biotin; cited from earlier work

Row | Sequence | binding signal (ohm (impedance increase)) [1] | binding signal [2] | binding signal [3] | binding signal [4] | binding signal (ohm (impedance increase)) ([1]; 5'-biotin) | pKd [5]
1 | CCGAATTCGAAGGACAAGAGGCGAAAAGATTTAAAGTAATCAAAGACTGAGCAACTCTTATCTTTTATGCTACGTCCCGC [control sequence (non-target aptamer)] | 282 | – | – | – | – | –
2 | GTGTGCATGGATAGCACGTAACGGTGTAGTAGATACGTGCGGGTAGGAAGAAAGGGAAATAGTTGTCCTGTTG [H5N1 aptamer] | – | -2000 | -2000 | -2000 | 61000 | 8.33
